# Molecular target: 3Flag-Lef1 (zebrafish) (UniProt Q9W7C0)
# Experiment: EMSA
# Conditions: 100 mM Hepes pH 7.5, 100 mM NaCl, 50 mM KCl, 1 mM DTT, 1 mM EDTA, 5% glycerol, 30 min at 25 °C
# Chain of UniProt Q9W7C0 (Q9W7C0 entry or part of it): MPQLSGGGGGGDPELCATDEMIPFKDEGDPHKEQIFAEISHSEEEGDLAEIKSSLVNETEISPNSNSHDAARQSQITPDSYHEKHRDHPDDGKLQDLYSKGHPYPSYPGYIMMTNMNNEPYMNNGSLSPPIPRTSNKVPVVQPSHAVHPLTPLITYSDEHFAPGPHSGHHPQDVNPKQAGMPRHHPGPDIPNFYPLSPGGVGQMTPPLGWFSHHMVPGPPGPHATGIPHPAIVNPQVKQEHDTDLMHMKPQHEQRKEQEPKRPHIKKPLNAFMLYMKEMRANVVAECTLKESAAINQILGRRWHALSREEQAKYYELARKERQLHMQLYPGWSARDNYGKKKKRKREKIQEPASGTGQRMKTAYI
sequence,measurement,value
CACCACTGATAAAAACTATTAAAGATCAGTCTGGGAGTCACTACTTTACTACTTGGTTTCATCAAAGTATTAAAAAAAGTGATGCGCTGCCTTCTTTAAATGCGTTCAC (double strand) [eya2 promoter WT EMSA probe],binding,binds

# From paper PMC12372851
